These results are taken from patent US20150150157A1, “PREPHENATE DEHYDROGENASES AND AROGENATE DEHYDROGENASES THAT ARE INSENSITIVE TO EFFECTOR FEEDBACK INHIBITION AND METHODS OF USING THE SAME” (Wisconsin Alumni Research Foundation, priority 2013, published 2015).

The conditions of data set [1]: literature values; read-out: Km for prephenate of other plant and microbial PDHs; cited from earlier work.
Data set [2] is described as follows: Kinetic analysis of purified recombinant enzymes, PDH activity. The format is biochemical. The procedure:
(§1) Kinetic parameters of purified recombinant GmPDH1 and MtPDH1 for ADH activity (Table 3) were determined from assays conducted using varying L-arogenate concentrations (39 μM to 5 mM). Assays were incubated for 15 min with 0.5 mM NADP^+, by placing on ice and quantified by measuring production of NADPH by absorbance at 340 nm. Kinetic parameters of purified recombinant GmPDH1 and MtPDH1 for PDH activity (Table 3) were determined from assays conducted using varying prephenate concentrations (29 μM to 3.5 mM). Assays with 0.5 mM NADP^+ were monitored continuously at 340 nm using a microplate reader (Tecan GENios, Zurich, Switzerland) for 7 min. Kinetic parameters were determined using hyperbolic regression analysis in Hyper (http://homepage.ntlworld.com/john.eastetby/software.html). Enzyme assays were carried out at a protein concentration and reaction time that were in the linear range and proportional to reaction velocity. The final enzyme concentrations of the purified recombinant GmPDH1 and MtPDH1 were 0.9 μg/ml and 0.7 μg/ml for PDH activity and 3.0 μg/ml and 1.4 μg/ml for ADH activity, respectively.

A short description of data set [3]: Kinetic analysis of purified recombinant enzymes, ADH activity. The data set is classed as biochemical. The settings on record: substrate L-arogenate (ADH activity), 37° C., 0.5 mM NADP+, mean ± s.e.m. The procedure: as §1
A short description of data set [4]: Inhibition analysis: L-Tyr sensitivity of PDH activity of purified recombinant GmPDH1 and MtPDH1. The format is biochemical. The settings on record: for effect of L-Tyr on PDH activity at low (non-saturating) prephenate concentrations: 1 mM L-Tyr, prephenate 15 mM to 59 μM; for effect of L-Tyr on PDH activity at low (non-saturating) prephenate concentrations / PDH activity: 1 mM NADP+; for PDH activity: purified recombinant enzyme, 1 mM prephenate; for inhibition of PDH activity by L-Tyr: up to 10 mM of L-Tyr. Here is the method: (§2) ADH and PDH reactions using GmPDH1, Glyma11g35760, MtPDH1 and AtADH2 (FIG. 5A) contained 200 mM HEPES (pH 7.3), 50 mM KCl, 10% ethylene glycol, 1 mN4 NADP^+ and 1 mM substrate (L-arogenate or prephenate, respectively). Reactions were started by addition of enzyme and incubated at 37° C. for 15 min in the presence of increasing concentrations of effectors: L-Tyr FIG. 5A), L-Phe, L-Trp and HPP. Tyr was dissolved in basic conditions (0.025 N NaOH) to dissolve at high concentrations (up to 10 mM), though 200 mM HEPES maintained the final reaction pH at 7.6. Tyr sensitivity of purified recombinant GmPDH1 and MtPDH1 was also tested at prephenate concentrations ranging from […] to 59 μM, below the K values for GmPDH1 and MtPDH1, while keeping the L-Tyr concentration constant at 1 mM (FIG. 13). Enzyme activity was measured for the production of reduced cofactor (NADPH) at 340 nm using a spectrophotometer, except for crude soybean extracts, which were analyzed by HPLC after 45 min incubation and reduction to HPLA as described above.

The nature of data set [5]: Inhibition analysis: effect of L-Phe on PDH activity of purified recombinant enzymes. The following applies: purified recombinant enzyme. The format is biochemical. Here is the method:
as §2

Data set [6] in a line: Inhibition analysis: effect of L-Trp on PDH activity of purified recombinant enzymes. The format is biochemical. The settings on record: purified recombinant enzyme. The procedure: as §2
Data set [7] is described as follows: Inhibition analysis: effect of HPP on PDH activity of purified recombinant enzymes. The data set is classed as biochemical. The settings on record: purified recombinant enzyme. The procedure: as §2
The nature of data set [8]: Qualitative HPLC detection of PDH activity in E. coli cell lysates expressing candidate enzymes. The following applies: 2 mM prephenate, saturating conditions. The format is biochemical. The procedure:
ADH and PDH reactions contained 25 mM HEPES (pH 7.5), 50 mM KCl, 10% ethylene glycol, 1 mM NADP (or NAD^+), 2 mM substrate (L-arogenate or prephenate, respectively) unless otherwise noted. Arogenate was prepared by enzymatic conversion from prephenate (Sigma-Aldrich), as previously reported. Reactions were started by addition of enzyme from various sources and incubated at 37′ C. for a given amount of time, as noted below,
HPLC-based methods were used to directly detect the final products of ADH and PDH assays, Tyr and HPP, respectively from crude E. coli extracts (FIG. 3B and FIG. 3C) and crude plant extracts (FIG. 2A and FIG. 6). For HPLC detection of PDH activity, reactions were incubated for 45 min and terminated by addition of NaBH4, which converts the reaction product HPP (which produced multiple peaks; FIG. 6) into hydroxyphenyllactic acid (HPLA), followed by neutralization with 100 μl of 6 N HCl. The conversion and recovery rate was 80±1.5% s.d. which was taken into account for the calculation of specific activity from crude plant extracts (FIG. 2C). HPLA was detected as a single peak (FIG. 2A) after being separated by HPLC (Agilent 1260, Santa Clara, Calif.) equipped with a ZORBA X SB-C18 column (Agitent) using a 6-min isocratic elution at 25% methanol in 0.1% phosphoric acid, followed by a 20-min linear gradient of 25-60% methanol at a flow rate of 1.0 ml/min. HPLA was detected using UV absorbance at 270 nm and quantified by a calibration curve generated from the authentic HPLA standard (Sigma-Aldrich). For HPLC-based detection of ADH activity (FIG. 3B), reactions were incubated for 45 min and terminated by addition of methanol to a final concentration of 66% (v/v). The product, Tyr, was derivatized with OPA and separated on a ZORBAX eclipse-XDB C18 column (Agilent) using a 30-min linear gradient of 20-45% methanol in 0.1% animonium acetate at a flow rate of 0.8 ml/min. Tyr was detected by UV absorption at 336 nm and quantified on the basis of a calibration curve generated by the authentic Tyr standard (Acros, Geel, Belgium).
The crude enzyme extracts were first subjected to PDH and ADH assays using saturating conditions to screen for any detectable PDH and/or ADH activity (FIG. 3B and FIG. 3C). ADH activity was detected from all five candidates. In contrast, PDH activity was detected only in Glyma11a35760 and Glyma18g02650 as well as their closest homolog from Medicago (Mt3g071980) but not in Glyma5g07870, Glyma17g13150 and Glyma14g05990 (FIG. 3C).

Data set [9] in a line: Substrate and electron acceptor preference of purified recombinant enzymes, PDH activity. The data set is classed as biochemical. The settings on record: with NADP+ and to a lesser extent NAD+. The procedure:
(§3) To test the electron acceptor and substrate preference of purified recombinant enzymes (FIG. 12), we incubated reactions for 15 min with 1.5 mM substrate (L-arogenate or prephenate) and 1 mM cofactor (NAD^+ or NADP^+). Assays were conducted with decreasing enzyme concentrations and stopped by placing on ice, and the production of reduced cofactor, NAD(P)H, was Measured at 340 nm using a spectrophotometer (NanoDrop 2000, Thermo).

Data set [10] in a line: Substrate and electron acceptor preference of purified recombinant enzymes, ADH activity. The following applies: with NADP+ or NAD+, compared with PDH activity. The data set is classed as biochemical. The procedure:
as §3

The mark [11] stands for this setting: cofactor NADP+, read-out: apparent Km for prephenate.
Where [12] appears, read: substrate prephenate (PDH activity), 37° C., 0.5 mM NADP+, mean ± s.e.m.
[13] abbreviates: substrate prephenate (PDH activity), 37° C., 0.5 mM NADP+, mean ± s.e.m., read-out: Km.

Entries after “also recorded” stand apart in the source; their conditions may differ. Read-outs that look alike come from different tables or passages of the source.

B1: M. tuberculosis PDH: microbial prephenate dehydrogenase from the literature (protein, UniProt O69721 1-323, looked up)
Prephenate dehydrogenase: MTRTVAAPPVCVLGLGLIGGSIMRAAAAAGREVFGYNRSVEGAHGARSDGFDAITDLNQTLTRAAATEALIVLAVPMPALPGMLAHIRKSAPGCPLTDVTSVKCAVLDEVTAAGLQARYVGGHPMTGTAHSGWTAGHGGLFNRAPWVVSVDDHVDPTVWSMVMTLALDCGAMVVPAKSDEHDAAAAAVSHLPHLLAEALAVTAAEVPLAFALAAGSFRDATRVAATAPDLVRAMCEANTGQLAPAADRIIDLLSRARDSLQSHGSIADLADAGHAARTRYDSFPRSDIVTVVIGADKWREQLAAAGRAGGVITSALPSLDSPQ
As for B1, the Km (in general, the substrate concentration at which the rate is half of its maximum) in [1] is 410 µM.

B2: MtPDH1: Medicago truncatula prephenate dehydrogenase enzyme, recombinant, insensitive to L-Tyr (protein, listed as Medicago truncatula)
chain: MSSSSKSLKIGIVGFGTFGQFLANTMIKQGHTLTATSRTDYSQLCDQMGIHFFRDITAFLDADMDVILLCTSISSLSEVVGSMPLACLKRPTLFVDVLSVKEHPKNLLLKVLPEESDILCTHPMFGPVSGKNGWQNLTFMFDKVRIKDEVTCSKFLQIFASEGCKMVEMSCEEHDKAAAKSQFITHTIGRTLAEMDIKSTPIDTKGFQTLVELKKPVMGCSFDLYSGLFVYNRFARQELENLEHALHKVKEMLVQRIDEGQNPERTES
With B2, the Km in [2] (setting [11]) was determined as 223 µM; in [2] (setting [13]) it was 223 ± 20 µM; in data set [3], 42500 ± 21800 µM; in data set [3] (listed as Mt3g071980) it was 43000 µM. Also, the Vmax in data set [2] (setting [12]) came out at 655 ± 73 nKat mg^−1; in data set [3] it was 229 ± 96 nKat mg^−1. The turnover number (kcat) – broadly, the maximal rate divided by the concentration of active sites – in [2] (setting [12]) was found to be 21.8 ± 2.4 s⁻¹; in data set [2] (substrate prephenate (PDH activity), 37° C., 0.5 mM NADP+, mean ± s.e.m., listed as Mt3g071980), 22 s⁻¹; in [3], 5.5 ± 3.2 s⁻¹. In data set [4], the “effect of L-Tyr on PDH activity at low (non-saturating) prephenate concentrations” value is recorded as “did not affect; also recorded: no effect”. Besides, the PDH activity stood at 579 ± 28 nKat/mg in data set [4] (L-Tyr 0 mM); 604 ± 22 nKat/mg in [4] (L-Tyr 0.01 mM); 610 ± 7 nKat/mg in data set [4] (L-Tyr 0.1 mM); 641 ± 19 nKat/mg in data set [4] (L-Tyr 1.0 mM); 652 ± 56 nKat/mg in data set [4] (L-Tyr 10 mM). In addition, in data set [4], the “inhibition of PDH activity by L-Tyr” value is recorded as “not inhibited”. Also, in data set [5], the “effect of L-Phe on PDH activity” value is on record as “did not reduce; also recorded: None of the tested molecules significantly reduced PDH activity”. Moreover, the “effect of L-Trp on PDH activity” value in [6] is listed as “did not reduce; also recorded: None of the tested molecules significantly reduced PDH activity”. In addition, the “effect of HPP on PDH activity” value in data set [7] was “did not reduce; also recorded: None of the tested molecules significantly reduced PDH activity”. In [8], the “PDH activity (qualitative detection)” value is “detected”. Moreover, the “PDH activity of purified recombinant enzyme” value in data set [9] is reported as “strong PDH activity”. Moreover, the “ADH activity of purified recombinant enzyme” value in [10] is “much weaker ADH activity”.

B3: GmPDH1: soybean prephenate dehydrogenase enzyme, recombinant, insensitive to L-Tyr (protein)
chain: MSTSSSSQSLKIGIVGFGNFGQFLAKTMIKQGHTLTATSRSDYSELCLQMGIHFFRDVSAFLTADIDVIVLCTSILSLSEVVGSMPLTSLKRPTLFVDVLSVKEHPRELLLRELPEDSDILCTHPMFGPQTAKNGWTDHTFMYDKVRIRDEVICSNFIQIFATEGCKMVQMSCEEHDRAAAKSQFITHTIGRTLGEMDIQSTPIDTKGFETLVKLKETMMRNSFDLYSGLFVYNRFARQELENLEHALHKVKETLMIQRTNGEQGHKRTES
modifications: Glycine max
notes: soybean prephenate dehydrogenase enzyme, recombinant, insensitive to L-Tyr
With B3, the Km in [2] (setting [11]) amounted to 127 µM; in data set [2] (setting [13]), 127 ± 20 µM; in data set [3] it was 17000 µM. The Vmax in data set [2] (setting [12]) was 800 ± 21 nKat mg^−1; in [3], 307 ± 56 nKat mg^−1. The kcat in data set [2] (setting [12]) was 26.3 ± 0.7 s⁻¹; in [2] (substrate prephenate (PDH activity), 37° C., 0.5 mM NADP+, mean ± s.e.m., listed as Glyma18g02650), 26 s⁻¹; in [3] it was 10.1 ± 1.8 s⁻¹. The “effect of L-Tyr on PDH activity at low (non-saturating) prephenate concentrations” value in data set [4] is listed as “did not affect; also recorded: no effect”. Besides, the PDH activity in data set [4] (L-Tyr 0 mM) came to 1059 ± 69 nKat/mg; in data set [4] (L-Tyr 0.01 mM), 1064 ± 52 nKat/mg; in data set [4] (L-Tyr 0.1 mM), 1103 ± 55 nKat/mg; in [4] (L-Tyr 1.0 mM), 1065 ± 44 nKat/mg; in data set [4] (L-Tyr 10 mM) it was 1152 ± 101 nKat/mg. Further, the “inhibition of PDH activity by L-Tyr” value in data set [4] is recorded as “not inhibited”. The “effect of L-Phe on PDH activity” value in data set [5] is reported as “did not reduce; also recorded: None of the tested molecules significantly reduced PDH activity”. For the same molecule, the “effect of L-Trp on PDH activity” value in data set [6] is reported as “did not reduce; also recorded: None of the tested molecules significantly reduced PDH activity”. Also, the “effect of HPP on PDH activity” value in [7] is recorded as “did not reduce; also recorded: None of the tested molecules significantly reduced PDH activity”. In addition, the “PDH activity (qualitative detection)” value in [8] is given as “detected”. Besides, in data set [9], the “PDH activity of purified recombinant enzyme” value is reported as “strong PDH activity”. For the same molecule, the “ADH activity of purified recombinant enzyme” value in [10] was “much weaker ADH activity”.
